This note sets out measurements from patent US11110182B2, “Multifunctional RNA nanoparticles and methods for treating cancer and therapeutic resistant cancer” (University of Cincinnati, priority 2016, dated 2021).

The data set relates to MED1 mRNA. Kind of data set: MED1 mRNA level by real-time PCR in BT474 cells. It counts as cell-based, human. The following applies: BT474, 10 μg/mL, 48 h, direct incubation. How it is done:
FIG. 3A) BT474 cells were incubated with 10 μg/mL control and pRNA-HER2apt-siMED1 nanoparticles for 48 h, and MED1 mRNA level was determined by real-time PCR. FIG. 3B) BT474 cells were incubated directly with (as indicated by -) or transfected with indicated pRNAs using lipofectamine 2000. At 48 h post treatment, MED1 protein levels were determined by western blotting. FIG. 3C) BT474 cells were treated with 10 μg/mL pRNA nanoparticles for 48 h and assayed for cell viability by MTT assay. FIG. 3D) Cells were treated as above and seeded for migration, and FIG. 3E) invasion transwell assays. Scale bar: 50 μm. FIG. 3F) After pRNA treatment for 48 h, the mRNA levels of ERα target genes TFF-1, FIG. 3G) c-Myc, and FIG. 3H) cyclin D1 in BT474 cells were determined by real-time PCR.
Cell culture. […] The hydrodynamic diameter and Tm value of pRNA nanoparticles were determined using dynamic light scattering and TGGE assay, respectively, as previously described.^54 The AFM imaging of the pRNA nanoparticles was performed at the University of Nebraska Medical Center imaging facility as previously reported.^55 Briefly, the pRNA nanoparticles (5 μL) were deposited on APS modified mica ^56 for a total of 2 min of incubation time. […] After washing three times with PBS, the cellular uptake of pRNAs was determined using a BD LSRFortessa™ flow cytometer. • Real-time PCR. […]

B1: pRNA-HER2apt-siMED1: 3-WJ pRNA nanoparticle bearing a HER2-targeting RNA aptamer and two different MED1 siRNAs; strands p1 SEQ ID NO: 3, p2 SEQ ID NO: 4 (nucleic acid)
chain 1: GGACAGUGAAAGUGAGUCAAAGGAUCAAUCAUGGCCAAAGAUGUUACUUUGAGAGCCUU
chain 2: GGCUCUCAAAGUAACAUCUAAGGCCAUGUGUAUGUGGGGGGAGGACGAUGCGGUCUGCUGUGCUUGAUAUGCCCCAGACGACUCGCCCCCCACAUACUUUGUUGAUCCAAUGACUCACUUUCACUGUCCUU
modifications: 2'-F modification; third strand may lack entry; pRNA-HER2apt-siMED1, p1; pRNA-HER2apt-siMED1, p2
In the case of B1, the “depletion of MED1 mRNA” value is around 70%.

B2: pRNA-HER2apt^mut-siMED1: control pRNA nanoparticle with mutant HER2 aptamer; strands p1 SEQ ID NO: 5, p2 SEQ ID NO: 6 (nucleic acid)
chain 1: B1 chain 1
chain 2: GGCUCUCAAAGUAACAUCUAAGGCCAUGUGUAUGUGGGAUGAGGAGUAUGAAGAUACCUGUACUUGAUAUGCCCCAGACGACAUUCCCCCCACAUACUUUGUUGAUCCAAUGACUCACUUUCACUGUCCUU
modifications: pRNA-HER2apt(mut)-siMED1, p1; pRNA-HER2apt(mut)-siMED1, p2
For B2, the “depletion of MED1 mRNA” value is given as “not”.
